Experimental data published in JP2023550785A (dated 2023).

Target: T1, spike protein of alphacoronavirus 229E-CoV (HCoV-229E, UniProt P15423 16-1115)
T1 sequence: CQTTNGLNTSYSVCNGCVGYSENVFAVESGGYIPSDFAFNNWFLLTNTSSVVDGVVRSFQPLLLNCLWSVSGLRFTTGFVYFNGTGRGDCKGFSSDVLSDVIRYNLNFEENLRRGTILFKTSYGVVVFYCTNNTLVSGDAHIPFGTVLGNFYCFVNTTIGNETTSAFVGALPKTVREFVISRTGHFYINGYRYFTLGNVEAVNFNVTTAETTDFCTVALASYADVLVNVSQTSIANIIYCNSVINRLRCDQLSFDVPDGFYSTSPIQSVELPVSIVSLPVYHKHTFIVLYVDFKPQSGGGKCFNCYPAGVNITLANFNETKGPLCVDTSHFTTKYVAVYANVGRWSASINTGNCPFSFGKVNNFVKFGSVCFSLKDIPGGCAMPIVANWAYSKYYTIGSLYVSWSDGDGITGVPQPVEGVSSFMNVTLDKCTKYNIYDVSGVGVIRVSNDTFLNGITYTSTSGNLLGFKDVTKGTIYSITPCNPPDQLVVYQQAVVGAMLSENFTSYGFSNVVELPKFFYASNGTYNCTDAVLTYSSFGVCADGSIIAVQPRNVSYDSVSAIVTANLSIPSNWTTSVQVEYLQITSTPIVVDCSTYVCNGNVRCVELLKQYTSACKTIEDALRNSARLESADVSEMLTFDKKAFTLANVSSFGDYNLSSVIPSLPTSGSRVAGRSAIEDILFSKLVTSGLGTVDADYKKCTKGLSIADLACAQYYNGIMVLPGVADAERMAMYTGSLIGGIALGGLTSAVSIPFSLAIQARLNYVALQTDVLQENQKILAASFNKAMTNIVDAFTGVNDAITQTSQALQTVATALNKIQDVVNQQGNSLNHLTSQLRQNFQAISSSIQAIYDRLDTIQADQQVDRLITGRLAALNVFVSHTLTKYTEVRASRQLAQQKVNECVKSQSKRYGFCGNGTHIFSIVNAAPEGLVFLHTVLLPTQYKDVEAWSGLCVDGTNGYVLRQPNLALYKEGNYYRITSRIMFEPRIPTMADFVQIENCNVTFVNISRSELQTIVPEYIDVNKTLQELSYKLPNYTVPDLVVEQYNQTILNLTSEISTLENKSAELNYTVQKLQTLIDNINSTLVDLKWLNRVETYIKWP
Test: ELISA on alphacoronavirus spike proteins (Fig 37)

B1: antibody S2P6 (antibody 420 1 1), human monoclonal antibody expressed as recombinant human IgG1 (antibody, V domains shown)
VH: EVQLVQSGAEVKKPGASVKVSCKASGYTFTSQYMHWVRQAPGQGLEWIGIINPSGVHTSYAQKFQGRVTLTRDTSTSTLYMELSSLRSEDTAVYYCARGSPKGAFDYWGQGTLVTVSS
VL: not shown
B1: no binding.
